Laboratory results taken from the supplement of paper PMC11865577.

Tests used:
Assay in all cases: pull-down binding Z-score (relative to library population); higher = stronger binding
[1] = tested on: G-clamp-N3 (biotin conjugate); details: RNA library: Library-1 (pre-miRNA loops + repeats)
How it was run: (§1)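 The RNA library, end-labelled with Cy5 or Cy3, was heat-folded in phosphate/NaCl/KCl buffer, and 1 μg was incubated at 25 °C for 60 min with streptavidin beads carrying 100 pmol of biotin-conjugated small molecule. Hot SDS released the bound RNA, which was then hybridised to a DNA barcode microarray for 20 h at 55.5 °C. For scoring binding, signal from beads alone was subtracted, replicate barcoded probes were averaged after discarding the highest and lowest, and each value was turned into a Z-score from the library mean and standard deviation.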

[2] = tested on: TO-N3-2 (biotin conjugate); details: RNA library: Library-2
How it was run: as §1

[3] = tested on: TO-3-N3 (biotin conjugate); details: RNA library: Library-2
How it was run: as §1

TO-N3 (biotin conjugate) = details: RNA library: Library-2
How it was run: as §1

[4] = tested on: TO-3-N3-2 (biotin conjugate); details: RNA library: Library-2
How it was run: as §1

| Sequence | pull-down binding Z-score [1] | pull-down binding Z-score [2] | pull-down binding Z-score [3] | pull-down binding Z-score (TO-N3 (biotin conjugate)) | pull-down binding Z-score [4] |
| --- | --- | --- | --- | --- | --- |
| UGAGACCUGGUGCAGAACGGGAAGGCGA [hsa-mir-551b] | 1.4 | 1.76 | 0.308 | 1.23 | 0.479 |
| UGAGCAGGCCCAGAACCCAGCUCGUGCUCA [hsa-mir-6794] | 0.169 | 0.805 | 0.387 | 0.56 | -0.114 |
| UGAGCAGGGUCCACACCAAGUCGUGUUCA [hsa-mir-27a] | -0.575 | 1.09 | 0.869 | 1.14 | 0.465 |
| UGAGCAUUCUAGCAGCAGUUUGAUGAUCA [hsa-mir-6516] | -0.0961 | -0.196 | -0.57 | -0.394 | -0.419 |
| UGAGCAUUUUUACUGAAUUGCCA [hsa-mir-6715a] | 0.49 | -0.686 | -0.582 | -0.738 | -0.268 |
| UGAGCUGUGAUGUUGCUCUCGAGCUGG [hsa-mir-769] | -0.872 | 1.27 | 0.732 | 1.02 | 0.336 |
| UGAGGAGCUUAGCAAGUAGCUAAGGCCAGA [hsa-mir-4517] | 0.384 | 1.1 | -0.194 | 0.339 | -0.393 |
| UGAGGAGUAGAACACUCCUUA [hsa-mir-491] | 0.0146 | -0.939 | -0.282 | -0.649 | -0.448 |
| UGAGGUACUUCCUUC [hsa-mir-1205] | -0.28 | -0.169 | 0.111 | 0.104 | -0.247 |
| UGAGGUUUACUAUGGAACCUCA [hsa-mir-4465] | 0.714 | -1.53 | -0.566 | -0.958 | -0.526 |
| UGAGUACAUUAUUUAUGAUUAAUCA [hsa-mir-376a-1] | -1.62 | -0.847 | -0.874 | -0.978 | -0.0505 |
| UGAGUGAUGACUCAGGCGACUCCA [hsa-mir-338] | 1.31 | 1.51 | -0.345 | 0.461 | -0.0635 |
| UGAGUGCCGACUGGCGCCUG [hsa-mir-4750] | -0.352 | 0.446 | -0.164 | 0.0638 | -0.448 |
| UGAGUGCUAUUUCAGUGCAACA [hsa-mir-362] | -0.0128 | 0.0784 | 0.967 | 0.821 | 0.108 |
| UGAGUGGCAUAAUCAGAGUACAAUUUGAGUCAUGCCCAUACAUCA [hsa-mir-23c] | -1.1 | 0.0219 | -0.338 | -0.271 | 0.0374 |
| UGAGUUUA [hsa-mir-451a] | -1.09 | -0.372 | -0.287 | -0.22 | -0.207 |
| UGAUCAUUAUAUGUAUGAUGAGAUCAU [hsa-mir-4528] | 1.33 | -0.0235 | -0.532 | -0.54 | -0.131 |
| UGAUUUGUGACUUAAGAUUAAAAUCA [hsa-mir-23b] | -0.478 | -0.649 | -0.415 | -0.499 | 0.0381 |
| UGCAAAUGCAAAGUUGGCUUUUGCA [hsa-mir-3680-2_3680-1] | 1.8 | -0.878 | -0.669 | -0.954 | -0.253 |

| Sequence | pull-down binding Z-score [1] | pull-down binding Z-score [2] | pull-down binding Z-score [3] | pull-down binding Z-score (TO-N3 (biotin conjugate)) | pull-down binding Z-score [4] |
| --- | --- | --- | --- | --- | --- |
| UGCACCACUCUCCCUGUGAUGAGGUGAA [hsa-mir-4786] | -0.896 | 0.456 | -0.535 | -0.255 | -0.354 |
| UGCACCAGUUCUGGCCGCUGGUGGA [hsa-mir-4683] | -0.459 | 0.856 | -0.16 | 0.104 | -0.295 |
| UGCAGAUGUGGACUGCUAAAUGCA [hsa-mir-1253] | -0.572 | 0.384 | -0.411 | -0.275 | -0.171 |
| UGCAGUAUCCGCUGUUGCUGCU [hsa-mir-6132] | -1.39 | 0.672 | -0.329 | -0.105 | -0.341 |
| UGCAGUGAGCAACCUACACAACUGCA [hsa-mir-5589] | -0.716 | -0.188 | -0.0632 | -0.0697 | -0.317 |
| UGCAGUGCUGGGCAUGGGCUUCUCG [hsa-mir-3677] | 0.689 | 1.54 | 1.07 | 1.49 | 0.328 |
| UGCAGUUAGUGAAGCAGCUUAGAAUCUACUGCC [hsa-mir-18b] | 0.0114 | 1.47 | 0.192 | 0.989 | 0.625 |
| UGCAGUUCUGUUGGGUGACAGCA [hsa-mir-6499] | -0.982 | 0.485 | 0.239 | 0.342 | -0.0248 |
| UGCAUAAAUGAAGCUGAAUGA [hsa-mir-6134] | -0.213 | 0.629 | -0.352 | -0.0557 | 0.378 |
| UGCCACCCAGCCCUGCAGAGCCCCUGACUC [hsa-mir-6814] | -1.17 | 1.44 | 0.562 | 1.16 | 0.422 |
| UGCCAUACUUUUAACGGCA [hsa-mir-548i-4] | -0.464 | -1.06 | -0.727 | -1.09 | -0.272 |
| UGCCAUUAAAAGUAAUGGCA [hsa-mir-548i-3_548i-2_548i-1] | 1.22 | -0.409 | 0.489 | 0.141 | -0.048 |
| UGCCAUUACUCUCAGUGGCA [hsa-mir-548y] | -0.0483 | -1.01 | -0.836 | -1.16 | -0.564 |
| UGCCCUAGCGGCU [hsa-mir-4268] | -0.151 | -0.238 | -0.212 | -0.211 | -0.708 |
| UGCCCUGGGGCCGUCCCUGCGCA [hsa-mir-1909] | -1.26 | 1.63 | 0.425 | 0.883 | 0.143 |
| UGCCUACUACUGAUGACAUACAAUGUAAGUGCUCAUUUAGGCG [hsa-mir-5696] | -0.861 | -0.201 | -0.702 | -0.71 | -0.289 |
| UGCCUCUCGGGGU [hsa-mir-6073] | -0.532 | 0.214 | 0.000863 | 0.118 | 0.15 |
| UGCCUUGUAGCAUUCAGGUCAAGCA [hsa-mir-103a-2] | 0.0735 | 0.0485 | -0.594 | -0.524 | -0.378 |
| UGCGUUAGGAUUUCUGUAUCAUCCUCCUAACGCA [hsa-mir-3166] | 0.901 | -0.758 | 0.576 | 0.306 | 0.141 |
